{
  "source": "the RNAGym collection of RNA variant scans (doi:10.7554/elife.80360)",
  "parents": {"B1": {"name": "CPEB3 Ribozyme (parent)", "chain": "GGGGGCCACAGCAGAAGCGUUCACGUCGCGGCCCCUGUCAGAUUCUGGUGAAUCUGCGAAUUCUGCUGU"}},
  "data": [
    {"variants_of": "B1", "assay": "self-cleavage, relative activity (ratio to wild type); higher = more cleavage; co-transcriptional", "values": [
      {"variant": "GGGGGCCACAGCCGAAGCGUUCACGUCGCGGCCCCUGUCAGAUUCUGGUGAAUCUGCGUAUUCUGCUGU", "note": "[A13C A59U]", "self-cleavage": 0.479},
      {"variant": "GGGGGCCACAGCCGAAGCGUUCACGUCGCGGCCCCUGUCAGAUUCUGGUGAAUCUGCGGAUUCUGCUGU", "note": "[A13C A59G]", "self-cleavage": 0.794},
      {"variant": "GGGGGCCACAGCCGAAGCGUUCACGUCGCGGCCCCUGUCAGAUUCUGGUGAAUCUGCGCAUUCUGCUGU", "note": "[A13C A59C]", "self-cleavage": 0.395},
      {"variant": "GGGGGCCACAGCCGGAGCGUUCACGUCGCGGCCCCUGUCAGAUUCUGGUGAAUCUGCGAAUUCUGCUGU", "note": "[A13C A15G]", "self-cleavage": 0.662},
      {"variant": "GGGGGCCACAGUAGAAGCGUUCACGUCGCGGCCCCUGUCAGAUUCUGGUGAAUCUGCGAAUUCUGCGGU", "note": "[C12U U67G]", "self-cleavage": 0.938},
      {"variant": "GGGGGCCACAGUAGAAGCGUUCACGUCGCGGCCCCUGUCAGAUUCUGGUGAAUCUGCGAAUUCUGCAGU", "note": "[C12U U67A]", "self-cleavage": 0.948},
      {"variant": "GGGGGCCACAGCCGAAGCGUUCACGUUGCGGCCCCUGUCAGAUUCUGGUGAAUCUGCGAAUUCUGCUGU", "note": "[A13C C27U]", "self-cleavage": 0.15},
      {"variant": "GGGGGCCACAGCCGAAGCGUUCACGUAGCGGCCCCUGUCAGAUUCUGGUGAAUCUGCGAAUUCUGCUGU", "note": "[A13C C27A]", "self-cleavage": 0.145},
      {"variant": "GGGGGCCACAGUAGAAGCGUUCACGUCGCGGCCCCUGUCAGAUUCUGGUGAAUCUGCGAAUUCGGCUGU", "note": "[C12U U64G]", "self-cleavage": 0.757},
      {"variant": "GGGGGCCACAGUAGAAGCGUUCACGUCGCGGCCCCUGUCAGAUUCUGGUGAAUCUGCGAAUUCAGCUGU", "note": "[C12U U64A]", "self-cleavage": 0.697},
      {"variant": "GGGGGCCACAGUAGAAGCGUUCACGUCGCGGCCCCUGUCAGAUUCUGGUGAAUCUGCGAAUUCCGCUGU", "note": "[C12U U64C]", "self-cleavage": 0.785},
      {"variant": "GGGGGCCACAGCCGAAGCGUUCACGUCGCGGCCCCUGUCAGAUUCUGGUGAUUCUGCGAAUUCUGCUGU", "note": "[A13C A52U]", "self-cleavage": 0.837},
      {"variant": "GGGGGCCACAGCCGAAGCGUUCACGUCGCGGCCCCUGUCAGAUUCUGGUGACUCUGCGAAUUCUGCUGU", "note": "[A13C A52C]", "self-cleavage": 0.77},
      {"variant": "GGGGGCCACAGCCGAAGCGUUCUCGUCGCGGCCCCUGUCAGAUUCUGGUGAAUCUGCGAAUUCUGCUGU", "note": "[A13C A23U]", "self-cleavage": 0.788},
      {"variant": "GGGGGCCACAGCCGAAGCGUUCGCGUCGCGGCCCCUGUCAGAUUCUGGUGAAUCUGCGAAUUCUGCUGU", "note": "[A13C A23G]", "self-cleavage": 0.507},
      {"variant": "GGGGGCCACAGUAGAAGCGUUCACGUCGCGGCCCCUGUCAGAUUCUGGUGAAUCUGCGAAUUCUGCUGC", "note": "[C12U U69C]", "self-cleavage": 1.07},
      {"variant": "GGGGGCCACAGCCGAAGCGUUCACGUCGCGGCCCCUGUCAGAUUCUGGUGAAUCUGCGAGUUCUGCUGU", "note": "[A13C A60G]", "self-cleavage": 0.384},
      {"variant": "GGGGGCCACAGCCGAAGCGUUCACGUCGCGGCCCCUGUCAGAUUCUGGUGAAUCUGCGACUUCUGCUGU", "note": "[A13C A60C]", "self-cleavage": 0.301},
      {"variant": "GGGGGCCACAGCCGAAGCGUUCACGUCGCGGCCCCUGUCAGUUUCUGGUGAAUCUGCGAAUUCUGCUGU", "note": "[A13C A42U]", "self-cleavage": 0.561},
      {"variant": "GGGGGCCACAGCCGAAGCGUUCACGUCGCGGCCCCUGUCAGGUUCUGGUGAAUCUGCGAAUUCUGCUGU", "note": "[A13C A42G]", "self-cleavage": 0.506},
      {"variant": "GGGGGCCACAGCCGAAGCGUUCACGUCGUGGCCCCUGUCAGAUUCUGGUGAAUCUGCGAAUUCUGCUGU", "note": "[A13C C29U]", "self-cleavage": 0.0773},
      {"variant": "GGGGGCCACAGCCGAAGCGUUCACGUCGAGGCCCCUGUCAGAUUCUGGUGAAUCUGCGAAUUCUGCUGU", "note": "[A13C C29A]", "self-cleavage": 0.21},
      {"variant": "GGGGGCCACAGCCGAAGCGUUCACGUCGCGGCCCGUGUCAGAUUCUGGUGAAUCUGCGAAUUCUGCUGU", "note": "[A13C C35G]", "self-cleavage": 0.323},
      {"variant": "GGGGGCCACAGCCGAAGCGUUCACGUCGCGGCCCUUGUCAGAUUCUGGUGAAUCUGCGAAUUCUGCUGU", "note": "[A13C C35U]", "self-cleavage": 0.751},
      {"variant": "GGGGGCCACAGCCGAAGGGUUCACGUCGCGGCCCCUGUCAGAUUCUGGUGAAUCUGCGAAUUCUGCUGU", "note": "[A13C C18G]", "self-cleavage": 0.0963},
      {"variant": "GGGGGCCACAGCCGAAGUGUUCACGUCGCGGCCCCUGUCAGAUUCUGGUGAAUCUGCGAAUUCUGCUGU", "note": "[A13C C18U]", "self-cleavage": 0.262},
      {"variant": "GGGGGCCACAGCCGAAGAGUUCACGUCGCGGCCCCUGUCAGAUUCUGGUGAAUCUGCGAAUUCUGCUGU", "note": "[A13C C18A]", "self-cleavage": 0.181},
      {"variant": "GGGGGCCACAGCCGAAGCGUUCACGUCGCGGCCCCUGUCAGAUUCUGGUGGAUCUGCGAAUUCUGCUGU", "note": "[A13C A51G]", "self-cleavage": 0.903},
      {"variant": "GGGGGCCACAGCCGAAGCGUUCACGUCGCGGCCCCUGUCUGAUUCUGGUGAAUCUGCGAAUUCUGCUGU", "note": "[A13C A40U]", "self-cleavage": 0.23},
      {"variant": "GGGGGCCACAGCCGAAGCGUUCACGUCGCGGCCCCUGUCCGAUUCUGGUGAAUCUGCGAAUUCUGCUGU", "note": "[A13C A40C]", "self-cleavage": 0.247},
      {"variant": "GGGGGCCACAGCCGAAGCGUUCACGUCGCGGACCCUGUCAGAUUCUGGUGAAUCUGCGAAUUCUGCUGU", "note": "[A13C C32A]", "self-cleavage": 0.55},
      {"variant": "GGGGGCCACAGCCGAAGCGUUCACGUCGCGGCACCUGUCAGAUUCUGGUGAAUCUGCGAAUUCUGCUGU", "note": "[A13C C33A]", "self-cleavage": 0.593},
      {"variant": "GGGGGCCACAGCCGAUGCGUUCACGUCGCGGCCCCUGUCAGAUUCUGGUGAAUCUGCGAAUUCUGCUGU", "note": "[A13C A16U]", "self-cleavage": 0.185},
      {"variant": "GGGGGCCACAGCCGAGGCGUUCACGUCGCGGCCCCUGUCAGAUUCUGGUGAAUCUGCGAAUUCUGCUGU", "note": "[A13C A16G]", "self-cleavage": 0.682},
      {"variant": "GGGGGCCACAGCCGACGCGUUCACGUCGCGGCCCCUGUCAGAUUCUGGUGAAUCUGCGAAUUCUGCUGU", "note": "[A13C A16C]", "self-cleavage": 0.102},
      {"variant": "GGGGGCCACAGCCGAAGCGUUCAUGUCGCGGCCCCUGUCAGAUUCUGGUGAAUCUGCGAAUUCUGCUGU", "note": "[A13C C24U]", "self-cleavage": 0.543},
      {"variant": "GGGGGCCACAGCCGAAGCGUUCAAGUCGCGGCCCCUGUCAGAUUCUGGUGAAUCUGCGAAUUCUGCUGU", "note": "[A13C C24A]", "self-cleavage": 0.402},
      {"variant": "GGGGGCCACAGCCGAAGCGUUCACGUCGCGGCCGCUGUCAGAUUCUGGUGAAUCUGCGAAUUCUGCUGU", "note": "[A13C C34G]", "self-cleavage": 0.498},
      {"variant": "GGGGGCCACAGCCGAAGCGUUUACGUCGCGGCCCCUGUCAGAUUCUGGUGAAUCUGCGAAUUCUGCUGU", "note": "[A13C C22U]", "self-cleavage": 0.209}
    ]}
  ]
}
